fluorescein = fluorescein label, attached with NHS-fluorescein

For the test, the target named is T1, fibrinogen (species not stated); biotinylated fibrinogen on streptavidin plates in the phage ELISA, free … (Homo sapiens (Human), UniProt P02671 20-644); P02675 31-491; P02679 27-437, Biotinylated at unstated positions in the phage ELISA and unlabelled in the anisotropy assay. The native molecule is a disulfide-linked dimer of the three chains, (A-alpha B-beta gamma)2, and is …).
T1 construct: also called Fgn; fibrinogen target
T1 sequence (alpha): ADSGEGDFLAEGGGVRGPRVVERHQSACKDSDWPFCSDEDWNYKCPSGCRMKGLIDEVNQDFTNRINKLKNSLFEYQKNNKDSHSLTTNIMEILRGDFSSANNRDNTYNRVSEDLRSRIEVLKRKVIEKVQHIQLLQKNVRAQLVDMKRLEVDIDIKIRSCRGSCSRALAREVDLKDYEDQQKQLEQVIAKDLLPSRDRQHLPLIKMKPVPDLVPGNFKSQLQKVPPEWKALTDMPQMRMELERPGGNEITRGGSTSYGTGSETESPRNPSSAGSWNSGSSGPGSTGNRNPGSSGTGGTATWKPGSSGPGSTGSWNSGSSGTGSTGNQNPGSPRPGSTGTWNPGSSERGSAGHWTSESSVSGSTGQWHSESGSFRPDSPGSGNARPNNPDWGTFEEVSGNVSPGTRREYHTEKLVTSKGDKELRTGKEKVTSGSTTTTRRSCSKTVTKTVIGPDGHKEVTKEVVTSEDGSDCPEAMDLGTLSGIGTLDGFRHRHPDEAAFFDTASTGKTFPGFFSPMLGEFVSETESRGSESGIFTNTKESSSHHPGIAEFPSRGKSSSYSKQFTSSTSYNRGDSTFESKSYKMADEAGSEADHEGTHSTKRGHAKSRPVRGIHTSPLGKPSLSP
T1 sequence (beta): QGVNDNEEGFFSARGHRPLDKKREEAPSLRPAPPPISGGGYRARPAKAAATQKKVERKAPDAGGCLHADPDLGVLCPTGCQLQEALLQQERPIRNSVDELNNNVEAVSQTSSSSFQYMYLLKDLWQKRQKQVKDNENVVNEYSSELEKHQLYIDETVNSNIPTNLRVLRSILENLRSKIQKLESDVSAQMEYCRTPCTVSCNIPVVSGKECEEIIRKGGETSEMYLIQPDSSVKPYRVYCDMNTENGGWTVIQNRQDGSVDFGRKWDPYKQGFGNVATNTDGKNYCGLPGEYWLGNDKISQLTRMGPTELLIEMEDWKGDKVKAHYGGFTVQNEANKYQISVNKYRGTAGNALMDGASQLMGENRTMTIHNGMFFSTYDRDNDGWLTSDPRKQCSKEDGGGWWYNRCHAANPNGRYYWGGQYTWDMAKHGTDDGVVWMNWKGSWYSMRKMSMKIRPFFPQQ
T1 sequence (gamma): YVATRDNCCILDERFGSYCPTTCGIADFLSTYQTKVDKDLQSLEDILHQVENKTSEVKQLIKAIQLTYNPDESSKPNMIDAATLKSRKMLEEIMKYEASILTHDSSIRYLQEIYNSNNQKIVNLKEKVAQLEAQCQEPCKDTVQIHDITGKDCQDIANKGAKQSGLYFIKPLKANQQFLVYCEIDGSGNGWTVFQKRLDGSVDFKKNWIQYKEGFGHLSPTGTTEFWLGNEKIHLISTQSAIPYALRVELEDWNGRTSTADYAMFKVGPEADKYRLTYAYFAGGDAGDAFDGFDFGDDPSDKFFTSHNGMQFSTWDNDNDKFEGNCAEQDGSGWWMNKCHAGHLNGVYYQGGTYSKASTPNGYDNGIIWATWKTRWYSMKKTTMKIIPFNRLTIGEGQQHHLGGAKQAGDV
Put plainly: fluorescence anisotropy, 20 nM fluorescein-labeled peptide, fibrinogen varied, 30° C., 1:1 fit. The protocol:
An apparent dissociation constant was determined for a selected polypeptide. For this determination, the polypeptide was labeled on the C-terminal end with NHS-fluorescein. Fluorescence anisotropy measurements were performed in 384-well microplates in a volume of 10 μl in binding buffer using a Tecan Polarion fluorescence polarization plate reader. The concentration of fluorescein labeled peptide was held constant (20 nM), and the concentration of fibrinogen was varied. The polypeptide was tested in the same binding buffer as used in the selection. The binding mixture was equilibrated for 10 minutes in the microplate at 30° C. prior to performing the measurement. The observed change in anisotropy was fit to the equation below via nonlinear regression to obtain the apparent KD. This equation assumes that the polypeptide and fibrinogen form a reversible complex with 1:1 stoichiometry.
(In general: In fluorescence polarisation assays a small probe gives low polarisation when free and higher when bound to something large.)

B1: fluorescein-labeled synthetic polypeptide based on the TN10/IX polypeptide of SEQ ID NO: 43 (peptide)
peptide: Ac-LYLCNSYPMHPYCNPSGGGK(fluorescein)-NH2
modifications: cysteine pairing not given here; also: retained phage-derived N- and C-terminal dipeptides, which ones not given here
notes: Commercial FMOC solid phase synthesis; also called selected polypeptide; not shown: retained phage-derived N-terminal dipeptide (Gly-Ser-, Ala-Gly- or Gly-Asp-); retained phage-derived C-terminal dipeptide (-Ala-Pro, -Gly-Thr or -Asp-Pro)
In general, Kd refers to a measure of binding affinity in units of concentration. Read a low Kd as tighter binding. As for B1, the Kd was found to be 2000 nM.

The record behind these values is patent US20030207330A1 (DYAX, published 2003).
